Measured values: PMC8556680

T1: GST-ZNF410 ZF1-ZF5 (Homo sapiens, UniProt Q86VK4 217-366)
T1 sequence: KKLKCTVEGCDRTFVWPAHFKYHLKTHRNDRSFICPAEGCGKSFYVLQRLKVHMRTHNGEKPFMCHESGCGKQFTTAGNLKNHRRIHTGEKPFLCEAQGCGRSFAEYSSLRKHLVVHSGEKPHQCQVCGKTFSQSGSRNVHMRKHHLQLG

B1: negative control oligo (FAM) (dsDNA)
DNA 1: TCCACTGCCAGGACCTTT
DNA 2: AAAAGGTCCTGGCAGTGG
B2: 17-bp consensus oligo (FAM) (dsDNA)
DNA 1: CACATCCCATAATAATG
DNA 2: CATTATTATGGGATGTG

How the values were obtained:
[1] = target: T1, GST-ZNF410 ZF1-ZF5; assay: fluorescence polarization
[2] = target: T1, GST-ZNF410 ZF1-ZF5; assay: fluorescence polarization; remark: listed apart in the source

Binder | binding result [1] | Kd [2] [nM]
B1 | no binding | –
B2 | – | 22
